Test results from the supplement of paper PMC10567573.

B1: ANKRD17 (parent)
chain: EMVRFLLEAGADQEHKTDEMHTAL

Variants of: B1
Assay: protein stability index of a GFP-peptide fusion (GPS, HEK-293T) (PSI 1-6); higher = more stable
Conditions: c terminus: a fixed tail appended
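Note: lentivirally expressed fusions sorted by FACS into six bins by GFP to DsRed ratio, PSI derived from sequencing read proportions per bin multiplied by bin number.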

Protein stability index, by site and new letter:
L6: H 4.42, A 4.45, Q 4.75, R 4.55, N 4.55, Y 3.81, G 4.95, T 4.62, V 3.51, P 5.04, K 4.7, M 3.75, I 2.63, E 5.28, W 3.25, F 3.08, S 4.69, D 5.47, C 4.22
E8: D 2.72, Y 1.78, N 2.48, C 2.14, M 2.62, T 2.63, R 2.03, F 1.94, V 1.89, G 2.08, A 2.15, Q 2.67, I 2.07, W 1.19, L 2.52, K 2.71, H 2.43, P 3.11, S 2.62
A9: T 3.04, F 2.32, Q 2.78, W 1.89, M 2.22, S 2.96, R 2.03, L 2.59, E 3.44, Y 2.54, I 1.98, H 2.58, V 2.29, N 2.92, P 3.08, C 2.62, G 2.8, D 3.09, K 3.05
L7: R 4.13, P 4.99, Y 3.17, D 5.07, C 3.56, V 3.64, N 3.72, H 4.27, M 3.4, E 4.79, W 3.26, I 3.31, K 3.7, T 3.99, F 3.31, Q 4.04, A 4.08, G 4.76, S 3.95
F5: L 2.56, Y 2.25, N 4.29, M 2.87, P 4.91, S 4.56, W 2.26, K 4.33, T 4.38, V 3.7, R 3.77, I 2.88, Q 4.22
E14: C 1.5, A 1.69
Q13: M 2.25, L 2.03, K 2.92, R 2.22, H 2.46, F 2.11, E 2.79, S 2.94, T 3.83, G 2.78, W 2.27, I 2.36, N 2.86, C 3.28, Y 1.87, D 3.77, A 2.65, V 2.69, P 2.67
A11: H 3.22, I 2.29, G 3.45, L 2.04, Q 2.58, E 2.68, C 2.57, V 2.94, M 1.87, F 1.83, W 2.22, R 3.02, P 3.73, K 2.64, D 3.21, Y 2.01, T 3.53, N 3.29, S 3.1
D12: L 1.09, Y 1.89, Q 2.66, G 1.96, H 1.94, V 2.05, P 2.25, N 2.17, C 1.44, W 1.43, M 2.07, S 2.29, I 1.62, A 2.38, K 2.69, R 2.05, T 2.21, F 1.66, E 2.76
G10: I 1.98, V 2.07, Q 2.57, D 3.13, E 3.32, M 2.05, S 2.03, W 2.2, N 2.82, K 2.57, H 2.57, F 2.18, R 1.67, P 3.73, A 2.76, C 2.13, L 1.95, Y 1.72, T 2.27
